# Test results published in patent USRE47150 (Bayer, dated 2018).
# T1: human tissue factor pathway inhibitor (TFPI) (human, UniProt P10646 29-304, limits assumed)
# T1 construct: bought; also called hTFPI; human TFPI
# T1 sequence (looked up): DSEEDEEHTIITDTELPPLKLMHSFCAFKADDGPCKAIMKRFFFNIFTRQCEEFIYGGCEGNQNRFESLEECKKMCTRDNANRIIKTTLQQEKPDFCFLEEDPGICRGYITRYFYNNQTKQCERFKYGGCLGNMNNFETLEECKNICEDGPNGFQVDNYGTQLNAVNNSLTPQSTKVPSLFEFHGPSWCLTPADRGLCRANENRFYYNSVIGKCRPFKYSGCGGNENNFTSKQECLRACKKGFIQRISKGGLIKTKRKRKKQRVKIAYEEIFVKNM
# T2: mouse tissue factor pathway inhibitor (TFPI) (mouse, UniProt O54819 29-289, limits assumed)
# T2 construct: bought; also called mTFPI; murine TFPI
# T2 sequence (looked up): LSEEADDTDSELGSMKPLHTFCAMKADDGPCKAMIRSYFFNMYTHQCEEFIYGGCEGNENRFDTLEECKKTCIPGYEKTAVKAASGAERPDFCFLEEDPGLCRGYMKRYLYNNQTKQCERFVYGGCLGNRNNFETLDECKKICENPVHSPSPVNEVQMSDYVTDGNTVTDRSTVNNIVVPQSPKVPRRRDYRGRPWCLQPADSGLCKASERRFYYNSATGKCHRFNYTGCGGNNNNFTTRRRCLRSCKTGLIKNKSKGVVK
# How the values were obtained:
# [1] = target: T1, human tissue factor pathway inhibitor …; assay: competitive ELISA
# [2] = target: T2, mouse tissue factor pathway inhibitor …; assay: equilibrium ELISA
# [3] = target: T1, human tissue factor pathway inhibitor …; assay: SPR, TFPI immobilized
# [4] = target: T2, mouse tissue factor pathway inhibitor …; assay: competitive ELISA
# [5] = target: T1, human tissue factor pathway inhibitor …; assay: competitive ELISA; remark: listed apart in the source
# [6] = target: T2, mouse tissue factor pathway inhibitor …; assay: SPR, TFPI immobilized
binder,measurement,setting,value
"4B7 LC_N35V LC_G56D (Fab, V domains shown) VH: QVQLQQSGPGLVKPSQTLSLTCAISGDSVSSNSAAWSWIRQSPGRGLEWLGIIYKRSKWYNDYAVSVKSRITINPDTSKNQFSLQLNSVTPEDTAVYYCARWHSDKHWGFDYWGQGTLVTVSS VL: DIVMTQSPLSLPVTPGEPASISCRSSQSLVFSDGVTYLNWYLQKPGQSPQLLIYKDSNRASGVPDRFSGSGSGTDFTLKISRVEAEDVGVYYCQQYDSYPLTFGQGTKVEIKR",variant/wild-type,[1],1.9 ratio
same,variant/wild-type,[2],8.2 ratio
"4B7 LC_S32R (Fab, V domains shown) VH: QVQLQQSGPGLVKPSQTLSLTCAISGDSVSSNSAAWSWIRQSPGRGLEWLGIIYKRSKWYNDYAVSVKSRITINPDTSKNQFSLQLNSVTPEDTAVYYCARWHSDKHWGFDYWGQGTLVTVSS VL: DIVMTQSPLSLPVTPGEPASISCRSSQSLVFRDGNTYLNWYLQKPGQSPQLLIYKGSNRASGVPDRFSGSGSGTDFTLKISRVEAEDVGVYYCQQYDSYPLTFGQGTKVEIKR",variant/wild-type,[1],4.2 ratio
same,variant/wild-type,[2],7.8 ratio
"B9.7 (4B7 HC N32D+D62R+Y112D/LC S32R+N35I) (Fab, V domains shown) VH: QVQLQQSGPGLVKPSQTLSLTCAISGDSVSSDSAAWSWIRQSPGRGLEWLGIIYKRSKWYNRYAVSVKSRITINPDTSKNQFSLQLNSVTPEDTAVYYCARWHSDKHWGFDDWGQGTLVTVSS VL: DIVMTQSPLSLPVTPGEPASISCRSSQSLVFRDGITYLNWYLQKPGQSPQLLIYKGSNRASGVPDRFSGSGSGTDFTLKISRVEAEDVGVYYCQQYDSYPLTFGQGTKVEIKR",KD fold improvement,[3],1270 fold
same,Kd,[3],8.78 pM
same,koff,[3],2.61e-05 s⁻¹
same,kon,[3],2.97e+06 M⁻¹ s⁻¹
same,variant/HC_D62R,[4],30.1 ratio
same,variant/HC_D62R,[5],26.1 ratio
same,KD fold improvement,[6],588 fold
same,Kd,[6],93.1 pM
same,koff,[6],0.000334 s⁻¹
same,kon,[6],3.59e+06 M⁻¹ s⁻¹
"4B7 LC_S61C (Fab, V domains shown) VH: QVQLQQSGPGLVKPSQTLSLTCAISGDSVSSNSAAWSWIRQSPGRGLEWLGIIYKRSKWYNDYAVSVKSRITINPDTSKNQFSLQLNSVTPEDTAVYYCARWHSDKHWGFDYWGQGTLVTVSS VL: DIVMTQSPLSLPVTPGEPASISCRSSQSLVFSDGNTYLNWYLQKPGQSPQLLIYKGSNRACGVPDRFSGSGSGTDFTLKISRVEAEDVGVYYCQQYDSYPLTFGQGTKVEIKR",variant/wild-type,[1],3.1 ratio
same,variant/wild-type,[2],15.3 ratio
"B18.5 (4B7 HC N32D+D62Q+Y112D/LC F31I+D33F+N35I) (Fab, V domains shown) VH: QVQLQQSGPGLVKPSQTLSLTCAISGDSVSSDSAAWSWIRQSPGRGLEWLGIIYKRSKWYNQYAVSVKSRITINPDTSKNQFSLQLNSVTPEDTAVYYCARWHSDKHWGFDDWGQGTLVTVSS VL: DIVMTQSPLSLPVTPGEPASISCRSSQSLVISFGITYLNWYLQKPGQSPQLLIYKGSNRASGVPDRFSGSGSGTDFTLKISRVEAEDVGVYYCQQYDSYPLTFGQGTKVEIKR",KD fold improvement,[3],428 fold
same,Kd,[3],26 pM
same,koff,[3],3.18e-05 s⁻¹
same,kon,[3],1.23e+06 M⁻¹ s⁻¹
same,variant/HC_D62R,[4],14 ratio
same,variant/HC_D62R,[5],22.4 ratio
same,KD fold improvement,[6],139 fold
same,Kd,[6],395 pM
same,koff,[6],0.00043 s⁻¹
same,kon,[6],1.09e+06 M⁻¹ s⁻¹
"B2.0 (4B7 HC N32D+D62R+Y112D/LC S32R+D33F+N35I+D97T) (Fab, V domains shown) VH: QVQLQQSGPGLVKPSQTLSLTCAISGDSVSSDSAAWSWIRQSPGRGLEWLGIIYKRSKWYNRYAVSVKSRITINPDTSKNQFSLQLNSVTPEDTAVYYCARWHSDKHWGFDDWGQGTLVTVSS VL: DIVMTQSPLSLPVTPGEPASISCRSSQSLVFRFGITYLNWYLQKPGQSPQLLIYKGSNRASGVPDRFSGSGSGTDFTLKISRVEAEDVGVYYCQQYTSYPLTFGQGTKVEIKR",KD fold improvement,[3],2180 fold
same,Kd,[3],5.1 pM
same,koff,[3],3.81e-05 s⁻¹
same,kon,[3],7.46e+06 M⁻¹ s⁻¹
same,variant/HC_D62R,[4],40 ratio
same,variant/HC_D62R,[5],26.2 ratio
same,KD fold improvement,[6],1210 fold
same,Kd,[6],45.1 pM
same,koff,[6],0.000315 s⁻¹
same,kon,[6],6.99e+06 M⁻¹ s⁻¹
"B32.5 (4B7 HC D62R+Y112D/LC D33F+N35I) (Fab, V domains shown) VH: QVQLQQSGPGLVKPSQTLSLTCAISGDSVSSNSAAWSWIRQSPGRGLEWLGIIYKRSKWYNRYAVSVKSRITINPDTSKNQFSLQLNSVTPEDTAVYYCARWHSDKHWGFDDWGQGTLVTVSS VL: DIVMTQSPLSLPVTPGEPASISCRSSQSLVFSFGITYLNWYLQKPGQSPQLLIYKGSNRASGVPDRFSGSGSGTDFTLKISRVEAEDVGVYYCQQYDSYPLTFGQGTKVEIKR",KD fold improvement,[3],749 fold
same,Kd,[3],14.8 pM
same,koff,[3],3.19e-05 s⁻¹
same,kon,[3],2.15e+06 M⁻¹ s⁻¹
same,variant/HC_D62R,[4],20.8 ratio
same,variant/HC_D62R,[5],20.3 ratio
same,KD fold improvement,[6],528 fold
same,Kd,[6],104 pM
same,koff,[6],0.000468 s⁻¹
same,kon,[6],4.52e+06 M⁻¹ s⁻¹
"4B7 LC_Y37F (Fab, V domains shown) VH: QVQLQQSGPGLVKPSQTLSLTCAISGDSVSSNSAAWSWIRQSPGRGLEWLGIIYKRSKWYNDYAVSVKSRITINPDTSKNQFSLQLNSVTPEDTAVYYCARWHSDKHWGFDYWGQGTLVTVSS VL: DIVMTQSPLSLPVTPGEPASISCRSSQSLVFSDGNTFLNWYLQKPGQSPQLLIYKGSNRASGVPDRFSGSGSGTDFTLKISRVEAEDVGVYYCQQYDSYPLTFGQGTKVEIKR",variant/wild-type,[1],3.6 ratio
same,variant/wild-type,[2],1.9 ratio
"B27.1 (4B7 HC N32D+D62R+Y112D/LC N35T+D97T) (Fab, V domains shown) VH: QVQLQQSGPGLVKPSQTLSLTCAISGDSVSSDSAAWSWIRQSPGRGLEWLGIIYKRSKWYNRYAVSVKSRITINPDTSKNQFSLQLNSVTPEDTAVYYCARWHSDKHWGFDDWGQGTLVTVSS VL: DIVMTQSPLSLPVTPGEPASISCRSSQSLVFSDGTTYLNWYLQKPGQSPQLLIYKGSNRASGVPDRFSGSGSGTDFTLKISRVEAEDVGVYYCQQYTSYPLTFGQGTKVEIKR",KD fold improvement,[3],875 fold
same,Kd,[3],12.7 pM
same,koff,[3],3.53e-05 s⁻¹
same,kon,[3],2.78e+06 M⁻¹ s⁻¹
same,variant/HC_D62R,[4],9.5 ratio
same,variant/HC_D62R,[5],26 ratio
same,KD fold improvement,[6],299 fold
same,Kd,[6],183 pM
same,koff,[6],0.000742 s⁻¹
same,kon,[6],4.06e+06 M⁻¹ s⁻¹
"4B7 LC_S57Y (Fab, V domains shown) VH: QVQLQQSGPGLVKPSQTLSLTCAISGDSVSSNSAAWSWIRQSPGRGLEWLGIIYKRSKWYNDYAVSVKSRITINPDTSKNQFSLQLNSVTPEDTAVYYCARWHSDKHWGFDYWGQGTLVTVSS VL: DIVMTQSPLSLPVTPGEPASISCRSSQSLVFSDGNTYLNWYLQKPGQSPQLLIYKGYNRASGVPDRFSGSGSGTDFTLKISRVEAEDVGVYYCQQYDSYPLTFGQGTKVEIKR",variant/wild-type,[1],1.6 ratio
same,variant/wild-type,[2],2.2 ratio
"gB9.7-IgG (4B7 HC N32D+G44S+K55Y+D62R+Y112D/LC S32R+N35I) (antibody, V domains shown, IgG format by its name) VH: QVQLQQSGPGLVKPSQTLSLTCAISGDSVSSDSAAWSWIRQSPSRGLEWLGIIYYRSKWYNRYAVSVKSRITINPDTSKNQFSLQLNSVTPEDTAVYYCARWHSDKHWGFDDWGQGTLVTVSS VL: DIVMTQSPLSLPVTPGEPASISCRSSQSLVFRDGITYLNWYLQKPGQSPQLLIYKGSNRASGVPDRFSGSGSGTDFTLKISRVEAEDVGVYYCQQYDSYPLTFGQGTKVEIKR",KD fold improvement,[3],1450 fold
same,Kd,[3],7.65 pM
same,koff,[3],1.56e-05 s⁻¹
same,kon,[3],2.03e+06 M⁻¹ s⁻¹
same,KD fold improvement,[6],6250 fold
same,Kd,[6],8.75 pM
same,koff,[6],2.36e-05 s⁻¹
same,kon,[6],2.7e+06 M⁻¹ s⁻¹
"4B7 LC_S32Y (Fab, V domains shown) VH: QVQLQQSGPGLVKPSQTLSLTCAISGDSVSSNSAAWSWIRQSPGRGLEWLGIIYKRSKWYNDYAVSVKSRITINPDTSKNQFSLQLNSVTPEDTAVYYCARWHSDKHWGFDYWGQGTLVTVSS VL: DIVMTQSPLSLPVTPGEPASISCRSSQSLVFYDGNTYLNWYLQKPGQSPQLLIYKGSNRASGVPDRFSGSGSGTDFTLKISRVEAEDVGVYYCQQYDSYPLTFGQGTKVEIKR",variant/wild-type,[1],2 ratio
same,variant/wild-type,[2],6.7 ratio
